B1: full-length human SNED1 (Sushi, nidogen and EGF-like domain-containing protein 1), FLAG-tagged (natural protein, UniProt Q8TER0 25-1413, looked up)
chain: AVALADFYPFGAERGDAVTPKQDDGGSGLRPLSVPFPFFGAEHSGLYVNNNGIISFLKEVSQFTPVAFPIAKDRCVVAAFWADVDNRRAGDVYYREATDPAMLRRATEDVRHYFPELLDFNATWVFVATWYRVTFFGGSSSSPVNTFQTVLITDGKLSFTIFNYESIVWTTGTHASSGGNATGLGGIAAQAGFNAGDGQRYFSIPGSRTADMAEVETTTNVGVPGRWAFRIDDAQVRVGGCGHTTSVCLALRPCLNGGKCIDDCVTGNPSYTCSCLSGFTGRRCHLDVNECASQPCQNGGTCTHGINSFRCQCPAGFGGPTCETAQSPCDTKECQHGGQCQVENGSAVCVCQAGYTGAACEMDVDDCSPDPCLNGGSCVDLVGNYTCLCAEPFKGLRCETGDHPVPDACLSAPCHNGGTCVDADQGYVCECPEGFMGLDCRERVPDDCECRNGGRCLGANTTLCQCPLGFFGLLCEFEITAMPCNMNTQCPDGGYCMEHGGSYLCVCHTDHNASHSLPSPCDSDPCFNGGSCDAHDDSYTCECPRGFHGKHCEKARPHLCSSGPCRNGGTCKEAGGEYHCSCPYRFTGRHCEIGKPDSCASGPCHNGGTCFHYIGKYKCDCPPGFSGRHCEIAPSPCFRSPCVNGGTCEDRDTDFFCHCQAGYMGRRCQAEVDCGPPEEVKHATLRFNGTRLGAVALYACDRGYSLSAPSRIRVCQPHGVWSEPPQCLEIDECRSQPCLHGGSCQDRVAGYLCLCSTGYEGAHCELERDECRAHPCRNGGSCRNLPGAYVCRCPAGFVGVHCETEVDACDSSPCQHGGRCESGGGAYLCVCPESFFGYHCETVSDPCFSSPCGGRGYCLASNGSHSCTCKVGYTGEDCAKELFPPTALKMERVEESGVSISWNPPNGPAARQMLDGYAVTYVSSDGSYRRTDFVDRTRSSHQLQALAAGRAYNISVFSVKRNSNNKNDISRPAVLLARTRPRPVEGFEVTNVTASTISVQWALHRIRHATVSGVRVSIRHPEALRDQATDVDRSVDRFTFRALLPGKRYTIQLTTLSGLRGEEHPTESLATAPTHVWTRPLPPANLTAARVTATSAHVVWDAPTPGSLLEAYVINVTTSQSTKSRYVPNGKLASYTVRDLLPGRRYQLSVIAVQSTELGPQHSEPAHLYIITSPRDGADRRWHQGGHHPRVLKNRPPPARLPELRLLNDHSAPETPTQPPRFSELVDGRGRVSARFGGSPSKAATVRSQPTASAQLENMEEAPKRVSLALQLPEHGSKDIGNVPGNCSENPCQNGGTCVPGADAHSCDCGPGFKGRRCELACIKVSRPCTRLFSETKAFPVWEGGVCHHVYKRVYRVHQDICFKESCESTSLKKTPNRKQSKSQTLEKS
modifications: N-glycosylated; phosphorylated on serine and threonine residues (sites not mapped)
B2: N-terminal fragment of human SNED1 (amino acids 1 to 260, includes the NIDO domain), FLAG-tagged (domain or fragment, UniProt Q8TER0 25-260, looked up)
chain: AVALADFYPFGAERGDAVTPKQDDGGSGLRPLSVPFPFFGAEHSGLYVNNNGIISFLKEVSQFTPVAFPIAKDRCVVAAFWADVDNRRAGDVYYREATDPAMLRRATEDVRHYFPELLDFNATWVFVATWYRVTFFGGSSSSPVNTFQTVLITDGKLSFTIFNYESIVWTTGTHASSGGNATGLGGIAAQAGFNAGDGQRYFSIPGSRTADMAEVETTTNVGVPGRWAFRIDDAQV
modifications: N-glycosylated; phosphorylated on serine and threonine residues (sites not mapped)

Biological target: the molecule itself
Assay: SEC-MALLS

Protein	stoichiometry N
B1	2
B2	2

From publication doi:10.1101/2020.07.27.223107 (bioRxiv, 2020)
